Common to all, as to test: cell-based or functional assay
For assay [1], the target named is Hemagglutinin of influenza virus A/Aichi/02/1968-PR8-X31 (H3N2) (Influenza A virus A/Aichi/02/1968-PR8-X31 (H3N2)) (UniProt P03437).
Assay [2] has as its target Hemagglutinin of influenza virus A/Philippines/01/1982 (H3N2) (Influenza A virus A/Philippines/01/1982 (H3N2)).
Assay [3] deals with Hemagglutinin of influenza virus A/Shanghai/01/2013-PR8 (H7N9) (Influenza A virus A/Shanghai/01/2013-PR8 (H7N9)).

B1: H1H14612N2 (antibody, V domains shown)
VH: EVQLVESGGGLVKPGGSLRLSCAASGFSFSGFSMNWVRQAPGKGLEWVSSISTSGNYMYYADSVKGRFTISRDNAKKSFSLQMNSLRAEDSAIYYCARGGGYNWNLFDYWGQGSLVTVSS
VL: EIVLTQSPGTLSLSPGERATLSCRASQSLNSNYLAWYQQKPGQAPRLLIYGASSRATGIPDRFSGSGSGADFTLTISRLESEDFAVYYCQQYGNSPLTFGGGTKVEIK
With B1, in assay [1], the EC50, complement-dependent cytotoxicity of virus-infected MDCK cells was 0.126 µM; the IC50 of neutralization, cell viability microneutralization assay on MDCK cells came out at 0.0057 µM; the maximum lysis, complement-dependent cytotoxicity of virus-infected MDCK cells was 86.3%. For the same molecule, the IC50 of neutralization, cell viability microneutralization assay on MDCK cells in assay [2] is 0.0376 µM. In assay [3], this molecule had an IC50 of neutralization, cell viability microneutralization assay on MDCK cells of over 6.67 µM.

For the origin of these results see patent publication US20210371505A1.
